Experimental data taken from US6770631 (ADPROTECH, dated 2004).

T1: complement receptor-2 (CR2) on the surface of Raji cells (UniProt P20023 21-1033, limits assumed)
T1 construct: whole, on cells; also called CD21; complement receptor type 2
T1 sequence (looked up): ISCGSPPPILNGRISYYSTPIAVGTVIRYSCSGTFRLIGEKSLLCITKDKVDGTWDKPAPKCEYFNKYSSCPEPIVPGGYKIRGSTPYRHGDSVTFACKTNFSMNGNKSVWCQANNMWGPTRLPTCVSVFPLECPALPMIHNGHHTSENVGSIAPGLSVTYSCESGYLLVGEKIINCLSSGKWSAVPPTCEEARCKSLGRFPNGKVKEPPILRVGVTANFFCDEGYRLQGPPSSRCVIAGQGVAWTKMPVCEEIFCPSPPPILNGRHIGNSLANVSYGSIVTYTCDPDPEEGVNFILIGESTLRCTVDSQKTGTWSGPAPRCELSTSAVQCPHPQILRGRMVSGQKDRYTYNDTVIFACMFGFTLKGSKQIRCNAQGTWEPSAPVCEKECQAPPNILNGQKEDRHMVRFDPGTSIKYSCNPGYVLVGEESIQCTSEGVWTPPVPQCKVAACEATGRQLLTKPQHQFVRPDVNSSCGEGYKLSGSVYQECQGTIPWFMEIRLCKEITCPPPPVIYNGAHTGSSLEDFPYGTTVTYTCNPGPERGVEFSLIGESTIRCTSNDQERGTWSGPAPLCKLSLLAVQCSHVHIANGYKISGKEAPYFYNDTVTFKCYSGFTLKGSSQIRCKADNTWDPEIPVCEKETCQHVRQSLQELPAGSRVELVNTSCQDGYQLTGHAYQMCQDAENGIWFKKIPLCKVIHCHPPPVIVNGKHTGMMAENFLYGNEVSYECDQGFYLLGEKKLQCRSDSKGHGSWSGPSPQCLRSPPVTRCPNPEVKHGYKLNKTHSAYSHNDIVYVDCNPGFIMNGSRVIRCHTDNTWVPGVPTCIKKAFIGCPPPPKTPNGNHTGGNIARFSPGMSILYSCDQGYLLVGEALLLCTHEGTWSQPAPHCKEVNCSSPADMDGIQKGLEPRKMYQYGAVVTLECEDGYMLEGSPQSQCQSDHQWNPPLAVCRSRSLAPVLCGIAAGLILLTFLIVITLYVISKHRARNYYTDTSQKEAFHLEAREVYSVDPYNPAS

B1: C3d monomer produced in baculovirus/Sf9 cells (murine C3d with C-terminal Glu-Glu-Phe tag) (ligand)
chain: not shown
notes: The end residue 330 was counted from the printed appendix (33 rows of 10 residues); Measured mass 34279 Da; also called baculovirus/Sf9 C3d; C3d1
B2: C3d expressed in COS cells (ligand)
chain: not shown
notes: domain: C3d; Comparator material; also called COS cell produced C3d

What was measured:
[1] = molecular target: T1, complement receptor-2 (CR2) on the …; experiment: competitive binding on Raji cells against 1 nM 125I-HEL-C3d, 1 h at 4 C, cell-pellet radioactivity
Procedure: The cells are then centrifuged through a dibutyl-diiso-octyl-phthalate cushion, and the amount of radioactivity associated with the pellet determined.
The binding was performed as described in General Methods Section (xvii) (a).

[2] = molecular target: T2, co-ligated CR2.IgG1; experiment: competitive ELISA: plate-bound C3d, 125 pM CR2.IgG1, soluble C3d titrated, HRP anti-mouse IgG1 detection
T2 construct: also called CR2; IgGl
Procedure: C3d is used to coat 96-well microtitre plates at 5 µg/ml in O. 1M NaHCO_3 by incubating overnight at 4° C. The plates are then blocked in 1% BSA 0.1% Tween-20 in PBS for 1 h at room temperature subsequently they are incubated with either 25 µl/well of C3d or from the C3d containing molecule under test in a dose response manner. To the wells is added 25 µl/well of a sub-saturating concentration of co-ligated CR2. […] The plates are then washed three times with PBS containing 0.1% (v/v) Tween-20. The amount of CR2 bound to the immobilised C3d is detected using a 1:3000 dilution of HRP-labeled goat anti-mouse-IgGl-antibody in PBS containing 0.1% (v/v)Tween-20 and incubated for 1 h at room temperature the wells were then washed as described above. The presence of HRP-antibody is detected using the TMB Peroxidase EIA Substrate Kit according to the manufacturer's instructions (Bio-Rad, UK).
The ELISA was performed as described in General Methods Section (xvii) (b). The monomer gave a $I50$ of 2 µM for the baculovirus/Sf9 material. A similar figure was obtained for the COS cell produced C3d.

| Binder | IC50 [1] | IC50 [2] |
| --- | --- | --- |
| B1 | 2.5 µM | 2 µM |
| B2 | 2.5 µM |  |
